Laboratory results published in the Immune Epitope Database (IEDB).
pIC50, pKd: −log10 of the molar value.

Columns and labels:
[1] = target: HLA-A*02:02; experiment: IEDB peptide-MHC binding, purified MHC/competitive/radioactivity; filed as Kd, often an IC50 or EC50 that approximates it; ≥ and ≤ were set here for values at or beyond the usual limits of such assays
[2] = target: HLA-A*02:03; experiment: as above
[3] = target: HLA-A*02:06; experiment: as above
[4] = target: HLA-A*02:01; experiment: IEDB peptide-MHC binding, purified MHC/competitive/fluorescence; ≥ and ≤ were set here for values at or beyond the usual limits of such assays
[5] = target: HLA-A*30:02; experiment: IEDB peptide-MHC binding, purified MHC/competitive/radioactivity; filed as Kd, often an IC50 or EC50 that approximates it; ≥ and ≤ were set here for values at or beyond the usual limits of such assays
[6] = target: HLA-A*26:01; experiment: as above
[7] = target: HLA-A*02:01; experiment: IEDB peptide-MHC binding, purified MHC/direct/fluorescence; filed as Kd, often an IC50 or EC50 that approximates it; ≥ and ≤ were set here for values at or beyond the usual limits of such assays
[8] = target: HLA-A*01:01; experiment: IEDB peptide-MHC binding, purified MHC/competitive/radioactivity; filed as Kd, often an IC50 or EC50 that approximates it; ≥ and ≤ were set here for values at or beyond the usual limits of such assays
[9] = target: HLA-A*24:02; experiment: as above
[10] = target: HLA-A*23:01; experiment: as above
[11] = source organism: Vaccinia virus WR
[12] = source organism: Zaire ebolavirus
[13] = source organism: Dengue virus 4 Philippines/H241/1956
[14] = source organism: Dengue virus 3 Martinique/1243/1999
[15] = source organism: Dengue virus 1 Brazil/97-11/1997
[16] = source organism: Mammarenavirus brazilense
[17] = source organism: Mammarenavirus whitewaterense
[18] = source organism: SARS coronavirus Tor2

Work on GMMQNDYGGM yielded a pKd [1, 11] of 6.99, a pKd [2, 11] of 6.23 and a pKd [3, 11] of 4.92.
Sequence GMSIVCIVAA has a pKd [1, 11] of 6.79, a pKd [2, 11] of 6.64 and a pKd [3, 11] of 5.91.
With GVAGLITGG the pIC50 [4, 12] was ≤ 4.11.
For GVPLLAMGCY, the pKd [5, 13] was 6.98.
Work on HLTTLATIS yielded a pIC50 [4, 12] of 4.16.
For HTLIMIGSNA, the pKd [6, 14] was ≤ 4.64.
Work on IILFQKAFS yielded a pIC50 ([4]; source organism: Sudan ebolavirus) of 4.17.
Work on IISYIILFIL yielded a pKd [1, 11] of 7.18, a pKd [2, 11] of 6.31 and a pKd [3, 11] of 5.41.
ILDGKNCTL was tested, and the pKd ([7]; source organism: Influenza A virus (A/turkey/Canada-Ontario/NS-01839-1/05(H3))) was 7.02.
In the case of ILDNAAKYV, the pKd [1, 11] was 6.90, the pKd [2, 11] was 6.58 and the pKd [3, 11] was 5.74.
ILWDYFSLV was tested, and the pKd ([7]; source organism: Mammarenavirus amapariense) was 9.70.
ISQHNYRPGY gave a pKd [8, 15] of 4.95 and a pKd [5, 15] of 7.08.
ISSTPFAEY gave a pKd [8, 13] of 5.72 and a pKd [5, 13] of 6.50.
Work on ISYKDREWCF yielded a pKd [9, 13] of 5.99.
ITVDDDGTM was tested, and the pKd [6, 14] was 4.86.
Work on KADAVVADL yielded a pKd [1, 11] of 5.29, a pKd [2, 11] of 4.91 and a pKd [3, 11] of 5.66.
KATLTEGVY gave a pKd [5, 13] of 7.40.
Sequence KLPTLFGRGV has a pKd [1, 11] of 6.72, a pKd [2, 11] of 7.49 and a pKd [3, 11] of 7.28.
KNATWCLEV gave a pKd [1, 16] of 5.79, a pKd [2, 16] of 5.15 and a pKd [3, 16] of 5.64.
With KTEHCDDFMT the pKd [1, 11] was 5.11, the pKd [2, 11] was ≤ 4.42 and the pKd [3, 11] was 4.94.
With KYTDRKWCF the pKd [10, 14] was 6.74 and the pKd [9, 14] was 6.86.
With LAYVVIGLLF the pKd [10, 15] was 7.44.
LDFAKVASV was tested, and the pKd [1, 17] was 7.21, the pKd [2, 17] was 6.34 and the pKd [3, 17] was 4.97.
With LFQLIFFLT the pKd [8, 16] was 5.48, the pKd [9, 16] was ≤ 4.65 and the pKd [6, 16] was ≤ 4.11. The pKd [5, 16] was 5.22.
In the case of LIGNENYLDY, the pKd [8, 15] was 5.22.
LINLVQYRI showed a pKd [1, 11] of 6.51, a pKd [2, 11] of 6.23 and a pKd [3, 11] of 5.27.
LLGLILFVL was tested, and the pKd [1, 11] was 6.58, the pKd [2, 11] was 5.73 and the pKd [3, 11] was 5.09.
LMANLAPHLL was tested, and the pKd [1, 18] was 9.64, the pKd [2, 18] was 8.84 and the pKd [3, 18] was 6.94.
With LMSFTILCLV the pKd [1, 18] was 9.47, the pKd [2, 18] was 7.04 and the pKd [3, 18] was 7.40.
